Source: US20210388087A1 (Chugai, published 2021)
Substitutions are numbered along the chain they refer to. Names may count otherwise.

Target: T1, Human CD137 ECD (human)
T1 construct: also called human CD137 extracellular domain; hCD137
Experiment: SPR (Biacore), affinity of single-mutation variant against parental H183/L072

T1 sequence (chain, as listed by the source limits assumed): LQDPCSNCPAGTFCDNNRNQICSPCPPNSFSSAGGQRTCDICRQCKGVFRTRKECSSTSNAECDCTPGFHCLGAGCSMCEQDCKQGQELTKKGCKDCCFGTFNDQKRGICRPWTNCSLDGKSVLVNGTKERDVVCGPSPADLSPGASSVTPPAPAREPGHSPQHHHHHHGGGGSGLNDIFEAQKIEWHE

B1: Dual-Fab H183/L072 variant with single light chain mutation A89Y (Kabat) (antibody, name in Kabat numbering, V domains shown)
VH: QVQLVESGGGLVQPGRSLRLSCAASGFTFSNAWMHWVRQAPGKGLEWVAQIKDKGNAYAAYYAPSVKGRFTISRDDSKNSIYLQMNSLKTEDTAVYYCHYVHYASASTVLPAFGVDAWGQGTTVTVSS
VL: DIVMTQSPLSLPVTPGEPASISCQASQELVHMNRNTYLHWYQQKPGQAPRLLIYKVSNRFPGVPDRFSGSGSGTDFTLKISRVEAEDVGVYYCYQGTSVPFTFGQGTKLEIK
notes: expressed as an antibody in Expi293 and purified on Protein A; also called dBBDu183H / dBBDu072L A89Y
Question: Which “fold change of affinity for CD137” value does the source give for B1 here?
Answer: The value was 0 fold.

B2: Dual-Fab H183/L072 variant with single light chain mutation F55Y (Kabat) (antibody, name in Kabat numbering, V domains shown)
VH: B1 VH
VL: B1 VL with F60Y, Y94A
notes: expressed as an antibody in Expi293 and purified on Protein A; also called dBBDu183H / dBBDu072L F55Y
Question: How did the “fold change of affinity for CD137” value turn out when B2 was run?
Answer: The value was 0 fold.

B3: Dual-Fab H183/L072 variant with single light chain mutation F96Y (Kabat) (antibody, name in Kabat numbering, V domains shown)
VH: B1 VH
VL: B1 VL with Y94A, F101Y
notes: expressed as an antibody in Expi293 and purified on Protein A; also called dBBDu183H / dBBDu072L F96Y
Question: B3 was tested. Which “fold change of affinity for CD137” value did it give?
Answer: Its value is 0.6 fold.

B4: Dual-Fab H183/L072 variant with single light chain mutation G91Y (Kabat) (antibody, name in Kabat numbering, V domains shown)
VH: B1 VH
VL: B1 VL with Y94A, G96Y
notes: expressed as an antibody in Expi293 and purified on Protein A; also called dBBDu183H / dBBDu072L G91Y
Question: How did the “fold change of affinity for CD137” value turn out when B4 was run?
Answer: The value was 0 fold.

B5: Dual-Fab H183/L072 variant with single light chain mutation N53Y (Kabat) (antibody, name in Kabat numbering, V domains shown)
VH: B1 VH
VL: B1 VL with N58Y, Y94A
notes: expressed as an antibody in Expi293 and purified on Protein A; also called dBBDu183H / dBBDu072L N53Y
Question: For B5, which “fold change of affinity for CD137” value is on record?
Answer: The value was 0.3 fold.

B6: Dual-Fab H183/L072 variant with single light chain mutation P56Y (Kabat) (antibody, name in Kabat numbering, V domains shown)
VH: B1 VH
VL: B1 VL with P61Y, Y94A
notes: expressed as an antibody in Expi293 and purified on Protein A; also called dBBDu183H / dBBDu072L P56Y
Question: Which “fold change of affinity for CD137” value does the source give for B6 here?
Answer: Its value is 0 fold.

B7: Dual-Fab H183/L072 variant with single light chain mutation P95Y (Kabat) (antibody, name in Kabat numbering, V domains shown)
VH: B1 VH
VL: B1 VL with Y94A, P100Y
notes: expressed as an antibody in Expi293 and purified on Protein A; also called dBBDu183H / dBBDu072L P95Y
Question: With B7 as the binder, how does the “fold change of affinity for CD137” value read?
Answer: The value was 0 fold.

B8: Dual-Fab H183/L072 variant with single light chain mutation Q90Y (Kabat) (antibody, name in Kabat numbering, V domains shown)
VH: B1 VH
VL: B1 VL with Y94A, Q95Y
notes: expressed as an antibody in Expi293 and purified on Protein A; also called dBBDu183H / dBBDu072L Q90Y
Question: For B8, which “fold change of affinity for CD137” value is on record?
Answer: Its value is 0 fold.

B9: Dual-Fab H183/L072 variant with single light chain mutation R54Y (Kabat) (antibody, name in Kabat numbering, V domains shown)
VH: B1 VH
VL: B1 VL with R59Y, Y94A
notes: expressed as an antibody in Expi293 and purified on Protein A; also called dBBDu183H / dBBDu072L R54Y
Question: With B9 as the binder, how does the “fold change of affinity for CD137” value read?
Answer: Its value is 0.2 fold.

B10: Dual-Fab H183/L072 variant with single light chain mutation S52Y (Kabat) (antibody, name in Kabat numbering, V domains shown)
VH: B1 VH
VL: B1 VL with S57Y, Y94A
notes: expressed as an antibody in Expi293 and purified on Protein A; also called dBBDu183H / dBBDu072L S52Y
Question: With B10 as the binder, how does the “fold change of affinity for CD137” value read?
Answer: The value was 1.2 fold.

B11: Dual-Fab H183/L072 variant with single light chain mutation S93Y (Kabat) (antibody, name in Kabat numbering, V domains shown)
VH: B1 VH
VL: B1 VL with Y94A, S98Y
notes: expressed as an antibody in Expi293 and purified on Protein A; also called dBBDu183H / dBBDu072L S93Y
Question: Which “fold change of affinity for CD137” value does the source give for B11 here?
Answer: The value was 0.8 fold.

B12: Dual-Fab H183/L072 variant with single light chain mutation T92Y (Kabat) (antibody, name in Kabat numbering, V domains shown)
VH: B1 VH
VL: B1 VL with Y94A, T97Y
notes: expressed as an antibody in Expi293 and purified on Protein A; also called dBBDu183H / dBBDu072L T92Y
Question: For B12, which “fold change of affinity for CD137” value is on record?
Answer: The value was 0 fold.

B13: Dual-Fab H183/L072 variant with single light chain mutation T97Y (Kabat) (antibody, name in Kabat numbering, V domains shown)
VH: B1 VH
VL: B1 VL with Y94A, T102Y
notes: expressed as an antibody in Expi293 and purified on Protein A; also called dBBDu183H / dBBDu072L T97Y
Question: How did the “fold change of affinity for CD137” value turn out when B13 was run?
Answer: Its value is 0.3 fold.

B14: Dual-Fab H183/L072 variant with single light chain mutation V51Y (Kabat) (antibody, name in Kabat numbering, V domains shown)
VH: B1 VH
VL: B1 VL with V56Y, Y94A
notes: expressed as an antibody in Expi293 and purified on Protein A; also called dBBDu183H / dBBDu072L V51Y
Question: B14 was tested. Which “fold change of affinity for CD137” value did it give?
Answer: The value was 0.2 fold.
